Tests used:
Assay in all cases: purified protein
Assay type in all cases: biochemical, Sulfolobus acidocaldarius
purified protein [1] = substrate: NC(=O)C1=CN([C@@H]2O[C@H](COP(=O)(O)OP(=O)(O)OC[C@H]3O[C@@H](n4cnc5c(N)ncnc54)[C@H](OP(=O)(O)O)[C@@H]3O)[C@@H](O)[C@H]2O)C=CC1; conditions: 5 mM 2S-AL (saturating), 10 mM MgSO4, 100 mM phosphate pH 8.0, 25 °C, varied: cofactor
purified protein [2] = substrate: NC(=O)C1=CN([C@@H]2O[C@H](COP(=O)(O)OP(=O)(O)OC[C@H]3O[C@@H](n4cnc5c(N)ncnc54)[C@H](O)[C@@H]3O)[C@@H](O)[C@H]2O)C=CC1; conditions: 5 mM 2S-AL (saturating), 10 mM MgSO4, 100 mM phosphate pH 8.0, 25 °C, varied: cofactor
purified protein [3] = substrate: CC(=O)[C@](C)(O)C(=O)O; conditions: 0.22 mM NADPH, 10 mM MgSO4, 100 mM phosphate pH 8.0, 25 °C, racemic 2-acetolactate used, concentration counted as the S enantiomer

B1: Sac-KARI (Sulfolobus acidocaldarius DSM 639) (protein)
chain: MAKIYTDKDVSLDVIKEKRVAVLGYGSQGRAWALNLRDSGIKVSVGLEREGNSWKQAENDGFKPLRTEEAVRNSDIIIFLLPDMIQRTVYLERVKPYLKEGMDLVFAHGFNIHYRLIEPPSNVDVYMIAPKAPGPIVREYFAKGGGVPALVATYQDHSGKALQKALAVAKAIGATRAGVIETTFKEETETDLFGEQVDLVGGVMQLMRYAFQTLVEAGYQPEVAYFETINEMKLIVDLVYEKGFSGMLTAVSDTAKYGGMTVGKMVIDESVKERMKKALDNIRSGKFAEKWVEEYGKGANTIKEGMKEVDNSTEEKVGRSLRDIILRGKPKS
notes: pET-21a NdeI/XhoI, His-tag retained; E. coli BL21(DE3); heat step, Ni-NTA, gel filtration; homodimer ~70 kDa (theoretical ~74 kDa); beta2-alphaB loop LEREGNS; R49, S53, D191, E195, E227, E231
B1 was tested, and the Km (purified protein [1]) was 0.4 ± 0.2 µM, the kcat (purified protein [1]) was 0.064 ± 0.001 s⁻¹ and the kcat/Km (purified protein [1]) was 186000 ± 80500 M⁻¹ s⁻¹. The Km (purified protein [2]) was 6.0 ± 0.8 µM, the kcat (purified protein [2]) was 0.056 ± 0.001 s⁻¹ and the kcat/Km (purified protein [2]) was 9500 ± 1300 M⁻¹ s⁻¹. The Km (purified protein [3]) was 140 ± 6 µM, the kcat (purified protein [3]) was 0.068 ± 0.001 s⁻¹ and the kcat/Km (purified protein [3]) was 490 ± 20 M⁻¹ s⁻¹.

— article PMC5940873, “NADH/NADPH bi-cofactor-utilizing and thermoactive ketol-acid reductoisomerase from Sulfolobus acidocaldarius” (Scientific Reports, 2018)
